Two substances from publication PMC5794333, “Identification of osmoadaptive strategies in the halophile, heterotrophic ciliate Schmidingerothrix salinarum” (PLoS Biology, 2018) can be followed below.

In general, Km refers to the substrate concentration at which the rate is half of its maximum. By Vmax is commonly meant the top rate of the reaction or transport when substrate is in excess.

In one data set the test system is O=C(O)CC(=O)C(=O)O. The data set can be described thus: purified protein. Particulars: 0.05 M NaCl, 0.3 mM NADH, 32.5 mM Tris/HCl pH 7.5.
In data set [1] the test system is O=C(O)CC(C(=O)O)C(O)C(=O)O. The data set can be described thus: purified protein. Conditions: 0.05 M NaCl, 0.8 mM NADP+, 1 mM MgCl2, 32.5 mM Tris/HCl pH 7.5, concentration as DL-isocitrate, text b40 prints 0.010 mM, the table's Vmax/Km fits 0.019.

For the substance “MDHS.salinarum (Schmidingerothrix salinarum)”, in the data set on O=C(O)CC(=O)C(=O)O, the Michaelis constant (Km) came to 0.038 mM and the Vmax was found to be 2060 µmol/min/mg.

Turning to “ICDHS.salinarum (Schmidingerothrix salinarum)”, in data set [1], the Km turned out to be 0.019 mM and the maximum rate (Vmax) was 6.8 µmol/min/mg.
